Experimental findings from paper PMC11943158 are described below.

Like-named read-outs stand apart in the source and are kept apart here.

For data set [1] the following is noted: O-GlcNAc at S355.
A further data set is described as follows: Flag Western blot. Conditions: glycan lost; control: Gli2-WT. (In general: A western blot detects proteins with antibodies after separation by electrophoresis.)
Data set [2] in a line: cycloheximide chase, Flag Western blot. Conditions: glycan lost.

B1: Gli2: S355A (protein)
parent chain: METSAPAPALEKKEAKSGLLEDSSFPDPGKKACPLAVAAAVAAHGVPQQLLPAFHAPLPIDMRHQEGRYHYDPHSVHSVHGPPTLSGSPVISDISLIRLSPHPAGPGESPFSAHHPYVNPHMEHYLRSVHSSPTLSMISAARGLSPADVAHEHLKERGLFSLAAPGTNPSDYYHQMTLMASHPTPYGDLLMQSGGAASAPHLHDYLNPVDASRFSSPRVTPRLSRKRALSISPLSDASLDLQRMIRTSPNSLVAYINNSRSSSAASGSYGHLSAGALSPAFTFPHPINPVAYQQILSQQRGLGSAFGHTPPLIQPSPTFLAQQPMTLTSISTMPTQLSSSSSNCLNDANQNKQNSESAVSSTVNPITIHKRSKVKTEAEGLRPASPLGLTQEQLADLKEDLDRDDCKQEAEVVIYETNCHWADCTKEYDTQEQLVHHINNEHIHGEKKEFVCRWQACTREQKPFKAQYMLVVHMRRHTGEKPHKCTFEGCSKAYSRLENLKTHLRSHTGEKPYVCEHEGCNKAFSNASDRAKHQNRTHSNEKPYICKIPGCTKRYTDPSSLRKHVKTVHGPDAHVTKKQRNDVHVRAPLLKENGDNEASAEPGGRGPEESVEASSTSHTVEDCLHIKAIKTESSGLCQSSPGAQSSCSSEPSPLGSAPNNDSGMEMPGTGPGSLGDLTALADTCPGADTSALAAPSTGGLQLRKHMSTVHRFEQLKREKLKSLKDSCSWAGPAPHTRNTKLPPLPVNGSVLENFNNTGGGGPAGLLPSQRLPELTEVTMLSQLQERRDSSTSTMSSAYTVSRRSSGISPYFSSRRSSEASPLGGLRPHNASSADSYDPISTDASRRSSEASQCSGGGPGLLNLTPAQQYNLRAKYAAATGGPPPTPLPGLDRVSLRTRLALLDAPERALPGACPHPLGPRRGSDGPTYSHGHGHGYAGAAPAFPHEGPNSSTRRASDPVRRPDPLILPRVQRFHSTHNMNPGSLPPCADRRGLHVQSHPSVDSNLTRNAYSPRPPSINENVVMEAVAAGVDGPGLECDLGLVEDELVLPDDVVQYIKAHTGGTLDDGIRQGYPTEGTGFPENSKLPSPGLQGHRRLAAADSNMGPSAPGLGGCQLSYSPSSNLNKSNMPVQWNEVSSGTVDALPTQVKPPPFPHSNLAVVQQKPAFGQYPGYNPQSVQSSSGGLDSTQPHLQLRGAPSASRGSYTQQPRQPAAGSQCLGMSAAMSPQASYSQAHPQLSPNIVSGSLNQFSPSCSNMAAKPSHLGLPQQMEVVPNATIMNGHQREHGVPNSSLAAVSQPHPVLSYPQQDSYQQGSNLLSSHQPGFMESQQNAGFGLMQPRPPLEPNTASRHRGVRSGQQQLYARTTGQAMVTSANQETAEAMPKGPAGTMVSLAPQPSQDTGRAQDQNTLYYYGQIHMYEQNGGCPAVQPQPPQPQACSDSIQPEPLPSPGVNQVSSTVDSQLLEPPQIDFDAIMDDGDHSSLFSGALSPTLLHNLSQNSSRLTTPRNSLTLPSIPAGISNMAVGDMSSMLTSLAEESKFLNMMT
Consider B1, for which the degradation_or_half_life entry in data set [1] and in data set [2] (control: Gli2-WT) was “decreases” in each case. The expression_or_secretion entry (in data set [1]; in “Flag Western blot”) was “decreases” in each case.

B2: Gli2: OSMI (protein)
parent chain: B1 parent chain
B2: the degradation_or_half_life result in data set [1] is recorded as “decreases, PM extended half-life from approximately 6 to 24 h; OSMI eliminated this”. Also, the “degradation_or_half_life, half_life” value in data set [2] (control: PM without OSMI) is “decreases”.
